The values that follow come from US20200055930A1 (Pfizer, published 2020).

Positions count from the first letter of the chain named. Several values for one entry are separate records, joined by “and”; a condition that tells them apart may be missing. Identical values can stand only once.

For assay [1], the target named is T1, Mouse Fc-human GDF15 (Mu IgG1Fc_Fxa_Hu GDF15) (human (GDF15 part)).
T1 construct: Whole fusion entry; also called Murine dimeric IgG1 Fc-human GDF-15 with FXa cleavage site; control human GDF15
T1 chain: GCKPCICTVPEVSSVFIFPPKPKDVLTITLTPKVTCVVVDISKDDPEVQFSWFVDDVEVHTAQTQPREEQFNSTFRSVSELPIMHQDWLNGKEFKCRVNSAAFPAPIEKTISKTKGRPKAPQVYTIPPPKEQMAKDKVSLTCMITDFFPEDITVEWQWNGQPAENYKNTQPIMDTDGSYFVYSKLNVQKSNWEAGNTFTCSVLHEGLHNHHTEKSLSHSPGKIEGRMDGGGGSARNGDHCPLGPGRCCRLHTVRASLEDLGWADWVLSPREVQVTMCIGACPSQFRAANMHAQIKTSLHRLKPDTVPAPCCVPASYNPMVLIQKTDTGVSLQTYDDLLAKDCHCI
The experiment in a line: SPR BIAcore T200 37C; Fc-GDF15 captured, IgG analyte. On the procedure:
Mouse Fc-human GDF15 (Mu IgG1Fc_Fxa_Hu GDF15; SEQ ID NO:2), Mouse Fc-mouse GDF15 (Mu IgG1Fc_Fxa_Mu GDF15; SEQ ID NO:5) and Mouse Fc-cynomolgus monkey GDF15 (Mu IgG1Fc_Fxa_Cyno GDF15; SEQ ID NO:4) were captured onto three different flow cells of a CM4 sensorchip (catalogue number BR100534, GE Healthcare) surface using the Mouse Antibody Capture Kit (BR100838, GE Healthcare) according to the manufacturer's protocol. The running and sample buffer was 10 mM HEPES pH 7.4, 0.15M NaCl, 3 mM EDTA, 0.05% P-20 (HBS-EP+). The final capture levels of Mu IgG1Fc_Fxa_Hu GDF15, Mu IgG1Fc_Fxa_Mu GDF15 and Mu IgG1Fc_Fxa_Cyno GDF15 were 40 resonance units (RU), 32 RU and 25 RU respectively. Flow cell 1 was used as a reference flow cell. […] The dissociation was monitored for 2.8 hours and the surface was regenerated with 10 mM Glycine pH 1.7. Binding affinities and rate constants were determined for murine and cynomolgus monkey GDF15 by fitting the resulting sensorgram data to a 1:1 Langmuir model in BIAcore T200 Evaluation software version 2.0 (GE Healthcare). […]

The target in assay [2] is Mouse Fc-mouse GDF15 (Mu IgG1Fc_Fxa_Mu GDF15) (mouse (GDF15 part)). The experiment in a line: SPR BIAcore T200 37C; Fc-GDF15 captured, monomeric Fc-Fab analyte.
The target is the same in assay [3]. The experiment in a line: SPR BIAcore T200 37C; Fc-GDF15 captured, monomeric Fc-Fab analyte; murine GDF15 ligand (Mu IgG1Fc_Fxa_Mu GDF15), first run.
For assay [4] the target is unchanged. The experiment in a line: SPR BIAcore T200 37C; Fc-GDF15 captured, monomeric Fc-Fab analyte; average.
The target is the same in assay [5]. Briefly: SPR BIAcore T200 37C; Fc-GDF15 captured, monomeric Fc-Fab analyte; murine GDF15 ligand (Mu IgG1Fc_Fxa_Mu GDF15), second run.
Assay [6] concerns the target T1, Mouse Fc-human GDF15 (Mu IgG1Fc_Fxa_Hu …). Briefly: SPR BIAcore T200 37C; Fc-GDF15 captured, monomeric Fc-Fab analyte. The text has this:
(§1) To understand the KD value, without the avidity effect, of GDF15_001 binding to GDF15, monomeric Fc-Fab was produced and tested in the same assay used in Example 2. […] Mu IgG1Fc_Fxa_Hu GDF15, Mu IgG1Fc_Fxa_Mu GDF15 and Mu IgG1Fc_Fxa_Cyno GDF15 were captured onto three different flow cells of a CM4 sensorchip (catalogue number BR100534, GE Healthcare) surface using the Mouse Antibody Capture Kit (BR100838, GE Healthcare) according to the manufacturer's protocol. The running and sample buffer was 10 mM HEPES pH 7.4, 0.15M NaCl, 3 mM EDTA, 0.05% P-20 (HBS-EP+). The final capture levels of Mu IgG1Fc_Fxa_Hu GDF15, Mu IgG1Fc_Fxa_Mu GDF15 and Mu IgG1Fc_Fxa_Cyno GDF15 were 19 resonance units (RU), 22 RU and 19 RU respectively. Flow cell 1 was used as a reference flow cell. […] The dissociation was monitored for 1200 seconds and the surface was regenerated with 10 mM Glycine pH 1.7. Binding affinities and rate constants were determined by fitting the resulting sensorgram data to a 1:1 Langmuir model in BIAcore T200 Evaluation software version 2.0 (GE Healthcare).

Assay [7] deals with T2, Mouse Fc-cynomolgus monkey GDF15 (Mu IgG1Fc_Fxa_Cyno GDF15) (cynomolgus monkey (GDF15 part)).
T2 construct: Whole fusion entry; also called Murine dimeric IgG1 Fc-cyno GDF-15 with FXa cleavage site
T2 chain: T1 chain with H239R, R254H, A287E, T296M, S297N, I345V
Described as above.
Excerpt: as §1

B1: GDF15_0470 (antibody, human IgG1, kappa, V domains shown)
VH: QVQLVQSGAEVKKPGASVKVSCKASGYPFEGWYIHWVRQAPGQGLEWMGWNNPRTGLTNHAQKFQGRVTMTRDTSISTAYMELSRLRSDDTAVYYCARGVGADAAFDIWGQGTMVTVSS
VL: EIVLTQSPATLSLSPGERATLSCRSSQSLLWKHGYNYLDWYQQKPGQAPRLLIYLDRNRAHGIPARFSGSGSGTDFTLTISSLEPEDFAVYYCMQSFETPITFGQGTKVEIKR
notes: Tested in bivalent format; also called GDF15-470
Regarding B1, in assay [1], the T½ is 222 min and 268 min.

B2: monomeric GDF15_001 (Fab, V domains shown)
VH: QVQLVQSGAEVKKPGSSVKVSCKASGYTFSSYNIDWVRQAPGQGLEWMGGINPIFGTAFYNQKFQGRVTITADESTSTAYMELSSLRSEDTAVYYCAREAITTVGAMDHWGQGTLVTVSS
VL: EIVLTQSPATLSLSPGERATLSCRTSQSVHNYLAWYQQKPGQAPRLLIYDASTRADGIPARFSGSGSGTDFTLTISSLEPEDFAVYYCQQFWSWPWTFGQGTKVEIK
notes: only the variable domains of GDF15_001 are tied to it; also called CH23LS-GDF15_001; CH23LS-GBT-GDF15_001
In the case of B2, the T½ is 3.39 min and 3.73 min in assay [2]; 513 min and 252 min in assay [6]; 154 min and 123 min in assay [7]. Also, the koff in assay [2] was 0.00341 s⁻¹ and 0.0031 s⁻¹; in assay [4] it was 0.00326 s⁻¹. Further, the kon was 1.62e+06 M⁻¹ s⁻¹ and 1.7e+06 M⁻¹ s⁻¹ in assay [2]; 1.66e+06 M⁻¹ s⁻¹ in assay [4]. The Kd in assay [3] was determined as 2.11 nM; in assay [4], 1.97 nM; in assay [5], 1.82 nM.

B3: GDF15_014 (antibody, human IgG1, kappa, V domains shown)
VH: B2 VH with G50Q, F55N, T57L, H109Y
VL: EIVLTQSPATLSLSPGERATLSCRTSQNVHNYLAWYQQKPGQAPRLLIYDASNRATGIPARFSGSGSGTDFTLTISSLEPEDFAVYYCQQFWSDPYTFGQGTKVEIKR
notes: Tested in bivalent format
Turning to B3, the T½ in assay [1] is 645 min and 780 min.

B4: GDF15_013 (antibody, human IgG1, kappa, V domains shown)
VH: B2 VH with S31D, I34M, I54N, F55N, T57L, H109Y
VL: B3 VL with Q27E, N28S, N31S, S93N, D94W, Y96W
notes: Tested in bivalent format
B4: in assay [1], the T½ is 173 min and 154 min.

B5: GDF15_004 (antibody, human IgG1, kappa, V domains shown)
VH: B2 VH with G50Q, I54N, F55N, T57L, F59N, N61A, V104I, H109Y
VL: B3 VL with Q27E, N28S, N31S, N53T, T56D
notes: Tested in bivalent format
Regarding B5, in assay [1], the T½ was 162 min and 141 min.

B6: GDF15_021 (antibody, human IgG1, kappa, V domains shown)
VH: B2 VH with F55N, T57L, A58I, Y60F
VL: B3 VL with Q27E, N31S, R54L, T56D
notes: Tested in bivalent format
As to B6, the T½ in assay [1] was 39.6 min and 32.8 min.

B7: GDF15_017 (antibody, human IgG1, kappa, V domains shown)
VH: B2 VH with S30T, S31D, G50Q, I54N, F55N, T57L, T91N, H109Y
VL: B3 VL with N28S, N31S, S52K, N53T, W92S
notes: Tested in bivalent format
In the case of B7, the T½ in assay [1] is 141 min and 133 min.

B8: GDF15_015 (antibody, human IgG1, kappa, V domains shown)
VH: B2 VH with S31D, I34M, G50Q, I54N, F55N, T57L, M107T, H109Y
VL: B3 VL with N31S, R54L, T56D, W92S, S93N, Y96W
notes: Tested in bivalent format
Take B8: the T½ in assay [1] is 116 min and 112 min.

B9: GDF15_003 (antibody, human IgG1, kappa, V domains shown)
VH: B2 VH with S30T, G50Q, I54N, F55N, T57L, A100Q, H109Y
VL: B3 VL with T25A, N28S, V29L, H30S, N31S, S52K, T56D, W92S
notes: Tested in bivalent format
B9: the T½ in assay [1] is 160 min and 126 min.

B10: GDF15_010 (antibody, human IgG1, kappa, V domains shown)
VH: B2 VH with S31D, I54N, F55N, T57L, Y60F, H109Y
VL: B3 VL with N28S, V29L, N31S, S93N, Y96W
notes: Tested in bivalent format
In the case of B10, in assay [1], the T½ was 784 min and 649 min.

B11: GDF15_020 (antibody, human IgG1, kappa, V domains shown)
VH: B2 VH with S31D, I34M, G50Q, I54N, F55N, T57L, F59N, H109Y
VL: B3 VL with T25A, V29L, N31S, N53T, T56D
notes: Tested in bivalent format
With B11, the T½ in assay [1] is 122 min and 102 min.

B12: GDF15_022 (antibody, human IgG1, kappa, V domains shown)
VH: B2 VH with S31D, G50Q, I54N, F55N, T57L, A58I, Y60F, A100V, H109Y
VL: B3 VL with N28S, N31S, S52K, N53T, T56D, W92S
notes: Tested in bivalent format
For the molecule B12, the T½ in assay [1] was 654 min and 795 min.

B13: GDF15_0297 (antibody, mouse IgG1, kappa, V domains shown)
VH: QVQLQQPGAELVKPGASVKMSCKASGYPFEGWYIHWVKQRPGQGLEWMGWNNPRTGLTNHAQKFQGKVTMTRDTSSSTAYMQLSSLTSEDSAVYYCARGVGADAAFDIWGQGTTLTVSS
VL: DIVMTQSPSSLSVSAGEKVTMSCRSSQSLLWKHGYNYLDWYQQKPGQPPKLLIYLDRNRAHGVPDRFTGSGSGTDFTLTISSVQAEDLAVYYCMQSFETPITFGGGTKLEIKR
notes: also called GDF15_297; GDF_0297
B13: in assay [1], the T½ was 1060 min and 895 min.
